According to patent US20160213766A1 (VENTRIA BIOSCIENCE, published 2016):

Target: the molecule itself
Experiment: Western blot under non-reducing, non-heated conditions; self-association

B1: rice-derived CTB.OspA fusion protein (other)
chain: TPQNITDLCAEYHNTQIHTLNDKIFSYTESLAGKREMAIITFKNGATFQVEVPGSQHIDSQKKAIERMKDTLRIAYLTEAKVEKLCVWNNKTPHAIAAISMANPGPGPGCKQNVSSLDEKNSVSVDLPGEMKVLVSKEKNKDGKYDLIATVDKLELKGTSDKNNGSGVLEGVKADKSKVKLTISDDLGQTTLEVFKEDGKTLVSKKVTSKDKSSTEEKFNEKGEVSEKIITRADGTRLEYTGIKSDGSGKAKEVLKGYVLEGTLTAEKTTLVVKEGTVTLSKNIAKSGEVSVELNDADSSAATKKTAAWNSGTSTLTITVNSKKTKDLVFTKENTITVQQYDSAGTKLEGSAVEITKLDEIKNALK
notes: also called OspA-CTB fusion protein; rice CTB.OspA fusion protein
B1: binds.
